Values of other authors, collected in publication PMC10991417.

Molecular target: Vasa CTD (Drosophila melanogaster) (UniProt P09052)
UniProt P09052, sequence (P09052 463-623): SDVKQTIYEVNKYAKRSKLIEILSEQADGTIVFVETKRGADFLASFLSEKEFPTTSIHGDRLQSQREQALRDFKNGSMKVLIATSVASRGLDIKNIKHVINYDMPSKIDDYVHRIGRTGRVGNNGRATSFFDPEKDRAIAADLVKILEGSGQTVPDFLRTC

Oskar eLOTUS (from UniProt P25158)
Kd: 10 µM
